Data on 12 molecules can be found in patent US20060270831A1 (AFFYMAX, published 2006).

T1: human erythropoietin receptor on Ba/F3-huEPOR cells (human, UniProt P19235 25-508)
T1 sequence (looked up): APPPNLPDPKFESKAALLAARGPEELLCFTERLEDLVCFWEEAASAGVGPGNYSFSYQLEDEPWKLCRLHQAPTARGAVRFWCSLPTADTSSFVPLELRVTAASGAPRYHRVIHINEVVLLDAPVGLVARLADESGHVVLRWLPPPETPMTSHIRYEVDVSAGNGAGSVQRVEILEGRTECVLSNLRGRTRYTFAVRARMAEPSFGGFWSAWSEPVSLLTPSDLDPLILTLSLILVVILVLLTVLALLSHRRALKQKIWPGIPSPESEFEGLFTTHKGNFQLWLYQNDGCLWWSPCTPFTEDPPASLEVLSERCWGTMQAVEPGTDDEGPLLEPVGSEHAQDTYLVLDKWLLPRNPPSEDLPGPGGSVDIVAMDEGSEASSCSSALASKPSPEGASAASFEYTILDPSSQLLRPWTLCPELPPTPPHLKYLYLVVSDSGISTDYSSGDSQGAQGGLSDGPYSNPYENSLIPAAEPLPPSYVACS

B1: Peptide dimer of Example 3, Code No. 20526 (R1 = R2 = GGTYSCHFGPLTBVCRPQGG, n1 = 1, n2 = 1, lysine linker, free cysteine thiols) (peptide)
peptide: GGTYSCHFGPLT[1Nal]VCRPQGG
modifications: not fully specified (C-terminus); cysteine pairing not given here; also: homodimer: C-termini joined via beta-alanine to a lysine linker
B2: Peptide dimer of Example 4, Code No. 20532 (R1 = R2 = GGTYSCHFGPLTBVCRPQ, n1 = 0, n2 = 0, lysine linker, free cysteine thiols) (peptide)
peptide: GGTYSCHFGPLT[1Nal]VCRPQ
modifications: cysteine pairing not given here; also: homodimer: C-termini joined through a lysine linker
B3: Peptide dimer of Example 11, Code No. 17762 (R1 = R2 = GGTYSCHFGPLTBVCRPQGG, both N-termini PEGylated, n1 = 1, n2 = 1, lysine linker) (peptide)
peptide: {PEG}-GGTYSCHFGPLT[1Nal]VCRPQGG
modifications: not fully specified (C-terminus); cysteine pairing not given here; reading uncertain; also: homodimer: C-termini joined via beta-alanine to a lysine linker, PEG size not given here
B4: Peptide dimer of Example 1, Code No. 17218 (R1 = R2 = GGTYSCHFGPLTBVCRPQGG, n1 = 0, n2 = 0, lysine linker, free cysteine thiols) (peptide)
peptide: GGTYSCHFGPLT[1Nal]VCRPQGG
modifications: cysteine pairing not given here; also: dimer: two identical chains joined at C-termini through a lysine amide linker
B5: Peptide dimer of Example 5, Code No. 20531 (R1 = R2 = GTYSCHFGPLTBVCRPQ, n1 = 0, n2 = 0, lysine linker, free cysteine thiols) (peptide)
peptide: GTYSCHFGPLT[1Nal]VCRPQ
modifications: cysteine pairing not given here; also: dimer: C-termini of both chains bound to lysine linker
B6: Peptide dimer of Example 10, Code No. 17644 (R1 = R2 = GGTYSCHFGPLTBVCRPQGG, both N-termini acetylated, n1 = 1, n2 = 0, lysine linker) (peptide)
peptide 1: Ac-GGTYSCHFGPLT[1Nal]VCRPQGG
peptide 2: Ac-GGTYSCHFGPLT[1Nal]VCRPQGG
modifications: cysteine pairing not given here; also: dimer: C-termini joined through lysine linker, one chain (R1) via a beta-alanine, the other (R2) directly
B7: Peptide dimer of Example 7, Code No. 17286 (R1 = R2 = GGTYSCHFGPLTBVCRPQGG, n1 = 1, n2 = 0, lysine linker, intramolecular disulfide in each chain) (peptide)
peptide 1: GGTYSCHFGPLT[1Nal]VCRPQGG
peptide 2: GGTYSCHFGPLT[1Nal]VCRPQGG
modifications: disulfide I:6-I:15, II:6-II:15; not fully specified (C-terminus); also: dimer: C-termini joined by lysine linker, R1 through βAla, R2 directly, which chain is R1 not given here
B8: Peptide dimer of Example 6, Code No. 19957 (R1 = R2 = GGTYSCHFGPLTBVCRPQGG, n1 = 0, n2 = 0, lysine linker, intramolecular disulfide in each chain) (peptide)
peptide: GGTYSCHFGPLT[1Nal]VCRPQGG
modifications: disulfide 6-15; also: dimer: C-termini of both chains bound to lysine (amide) linker
B9: Peptide dimer of Example 2, Code No. 20528 (R1 = R2 = GGTYSCHFGPLTBVCRPQGG, n1 = 1, n2 = 0, lysine linker, free cysteine thiols) (peptide)
peptide 1: GGTYSCHFGPLT[1Nal]VCRPQGG
peptide 2: GGTYSCHFGPLT[1Nal]VCRPQGG
modifications: cysteine pairing not given here; also: dimer: C-termini joined through lysine linker, one chain (R1) via a beta-alanine, the other (R2) directly
B10: Peptide dimer of Example 8, Code No. 19261 (R1 = R2 = GGTYSCHFGPLTBVCRPQGG, n1 = 1, n2 = 1, lysine linker, intramolecular disulfide in each chain) (peptide)
peptide: GGTYSCHFGPLT[1Nal]VCRPQGG
modifications: disulfide 6-15; not fully specified (C-terminus); also: dimer: each chain joined through βAla to lysine linker

Bridge positions count the residues as written; N and C are the ends. Square brackets hold non-standard residues; d marks the D form. Ends that are not written are not given here. I, II: the chains in the order shown. 1Nal = N[C@@H](Cc1cccc2ccccc12)C(=O)O; PEG = not defined here

The first test concerns the target T1, human erythropoietin receptor on …. Description: cell-based or functional assay.
Turning to B1, the “EC50 (nM), bioassay (Ba/F3-huEPOR cell proliferation)” value (“EC50 (nM), bioassay” for short) is 5 nM. The same measure, in the same setting: the value for B2 was 50 nM; that for B3 was 0.4 nM; that for B4 was 6 nM. As to B5, the “EC50 (nM), bioassay” value is 100 nM. For the molecule B6, the “EC50 (nM), bioassay” value came out at 5 nM. Take B7: the “EC50 (nM), bioassay” value was 0.4 nM.

As to B8, the “EC50 (nM), bioassay” value was 0.5 nM. Still for that read-out and setting: the value for Ac-GGTYSCHFGPLT[1Nal]VCRPQGGK (not fully specified; also: cysteine state not given here) was 2 nM. Turning to B9, the “EC50 (nM), bioassay” value was 6 nM. Regarding B10, the “EC50 (nM), bioassay” value came to 0.3 nM.

Another test has the same target. The test is described as follows: cell-based or functional assay. The source holds these as a separate data set.
GGTYSCHFGPLT[1Nal]VCRPQGG (cysteine pairing not given here) [monomeric compound having the sequence GGTYSCHFGPLTBVCRPQGG (SEQ ID NO: 7)]: the “EC50, bioassay (Ba/F3-huEPOR cell proliferation)” value stood at 200 nM.
